# Laboratory results as given in patent US20110312505A1 (University of Texas, published 2011).
# T1: human complement protein C1s (human, UniProt P09871 16-688)
# T1 construct: Purified protein, bought; coated on ELISA plates, amine-coupled to a CM5 chip, or native in human serum (immunoprecipitation); also called human complement serine protease
# T1 sequence (looked up): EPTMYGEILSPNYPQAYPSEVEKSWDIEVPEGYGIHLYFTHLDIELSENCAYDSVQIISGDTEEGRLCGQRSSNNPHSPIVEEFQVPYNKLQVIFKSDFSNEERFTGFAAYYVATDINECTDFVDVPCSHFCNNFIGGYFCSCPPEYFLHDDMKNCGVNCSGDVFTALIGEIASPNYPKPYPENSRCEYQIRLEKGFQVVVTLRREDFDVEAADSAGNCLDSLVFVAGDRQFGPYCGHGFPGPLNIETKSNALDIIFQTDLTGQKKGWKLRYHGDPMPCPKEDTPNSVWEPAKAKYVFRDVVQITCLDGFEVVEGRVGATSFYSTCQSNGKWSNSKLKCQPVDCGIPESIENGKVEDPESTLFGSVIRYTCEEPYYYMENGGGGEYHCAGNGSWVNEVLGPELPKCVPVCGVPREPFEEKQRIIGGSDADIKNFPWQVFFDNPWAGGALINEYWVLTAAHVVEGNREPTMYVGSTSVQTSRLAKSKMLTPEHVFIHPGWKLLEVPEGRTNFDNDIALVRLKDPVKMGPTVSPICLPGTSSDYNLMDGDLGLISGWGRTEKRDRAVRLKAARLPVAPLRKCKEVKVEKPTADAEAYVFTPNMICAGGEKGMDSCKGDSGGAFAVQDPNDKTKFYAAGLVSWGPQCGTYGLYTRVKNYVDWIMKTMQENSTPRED
# T2: human B cell regulator of IgH transcription (BRIGHT) (human, UniProt Q99856 1-593, limits assumed)
# T2 construct: Recombinant, made in bacteria
# T2 sequence (looked up): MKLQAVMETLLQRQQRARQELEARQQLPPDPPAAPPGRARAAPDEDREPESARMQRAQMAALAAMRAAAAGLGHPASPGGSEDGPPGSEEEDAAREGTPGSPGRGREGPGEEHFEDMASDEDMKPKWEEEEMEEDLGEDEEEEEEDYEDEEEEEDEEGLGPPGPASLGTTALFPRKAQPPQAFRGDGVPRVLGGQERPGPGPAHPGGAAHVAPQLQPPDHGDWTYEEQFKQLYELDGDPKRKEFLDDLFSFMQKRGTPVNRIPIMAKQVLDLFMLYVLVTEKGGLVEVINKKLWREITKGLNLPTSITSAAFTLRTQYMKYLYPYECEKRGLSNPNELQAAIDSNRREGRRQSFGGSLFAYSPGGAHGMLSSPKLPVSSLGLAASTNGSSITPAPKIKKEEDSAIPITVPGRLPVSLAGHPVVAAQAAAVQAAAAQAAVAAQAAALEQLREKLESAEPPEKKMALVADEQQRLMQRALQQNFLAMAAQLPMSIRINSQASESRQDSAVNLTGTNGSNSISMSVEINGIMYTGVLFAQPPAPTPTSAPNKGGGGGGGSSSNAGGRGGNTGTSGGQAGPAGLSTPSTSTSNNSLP
# Experiments:
# [1] = biological target: T1, human complement protein C1s; experiment: ELISA, E. coli whole cell lysate with scFv from combinatorial library
# [2] = biological target: T1, human complement protein C1s; experiment: ELISA, antigen-coated plate, titration of purified IgG, anti-human Fc-HRP
# Description: (§1) Purified IgGs were added to the plate at various concentrations for 1.5 h and washed with PBS/0.05% Tween-20. A polyclonal antibody of goat anti-human Fc region conjugated HRP was used for detection and developed with TMB substrate and stopped with 2N H₂SO₄. The absorbance was measured at 450 nm with a 96 well spectrophotometer. A titration curve of purified IgGs was used to determine an approximate IC50 for binding (Table 8).
# [3] = biological target: T2, human B cell regulator of IgH …; experiment: as above
# Description: as §1
# [4] = biological target: T1, human complement protein C1s; experiment: SPR (BIAcore 3000), C1s amine-coupled to CM5 chip, antibody injected, bivalent model
# Description: FIGS. 13A-13B. Kinetic binding analysis of purified anti-C1s IgGs by Surface Plasmon Resonance (Biacore). (FIG. 13A) Anti-C1s 2.1L-2.1HB was injected onto a chip with immobilized C1s at 25 nM, 50 nM, 100 nM or 200 nM and (FIG. 13B) As above for anti-C1s 2.3L-2.2H injected at 2.625 nM, 5.25 nM, 10.5 nM or 21 nM.
# (§2) Surface Plasmon Resonance (Biacore) C1s was covalently immobilized on a CM5 chip (GE healthcare, NJ) at a level of approximately 200 response units via standard amine coupling chemistry as described in the manufacturer's protocol. BSA was similarly coupled for baseline correction. All kinetic analyses were performed at 25° C. in HBS-EP (10 mM HEPES, 150 mM NaCl, 50 μM EDTA, 0.005% P-20, pH 7.4) on a BIAcore 3000 (GE healthcare, NJ). Antibodies were injected over immobilized antigen at a flow rate of 50 μl/min or 100 μl/min and the chip was regenerated with a single 10s injection of 20 mM NaOH. Each sensogram was run in duplicate. Kinetic and equilibrium constants were determined by global fitting to a bivalent model using BIAevaluation software (GE healthcare, NJ).
# [5] = biological target: T1, human complement protein C1s; experiment: SPR (Biacore), IgG on immobilized C1s
# From the text: Antibodies were recombinantly expressed and purified as monomeric scFv fragments in E. coli and as full-length IgG antibodies in HEK 293F cells. […] Furthermore, the antibodies were suitable for functional assays, such as sandwich ELISA and immunoprecipitation of C1s from human serum (FIGS. 14-15).
# as §2
ELISA Signal (OD450 on antigen-coated wells relative to BSA-coated wells) [1] [fold over BSA wells],EC50 (half-maximal binding) [2] [nM],Binder,also measured
8.8,,"anti-C1s scFv 2.3L-2.3H (scFv, scFv in E. coli whole cell lysate; also called C1s-2 3L-3H) scFv: DIVMTQSPLTLTVTIGQPASISCKSSQSLLDSDGKTYLNWLLQRPGQSPKRLIYLVSKLDSGVPDRFTGSGSGTEFTLKTSRVEAEDLGVYYCWQGTHFPHFGGGTKLEIKGGGGSGGGGSGGGGSGGGGSQVQLQQSGTVLARPGASVKMSCKASGYTFTSYWMHWVKQRPGQGLEWIGAIYPGNSDTSYNQKFKGKAKLTAVTSTSTAYMELSSLTNEDSAVYYCTRSDGYYYFDYWGQGTTLTVSSA",
,50,"anti-C1s IgG 2.1L-2.1H (antibody, V domains shown, also called C1s 2.1L-2.1H) VH: QVQLQQSGAELARPGASVKMSCKASGYTFTSYTMHWVKQRPGQGLEWIGYINPSSGYTNYNQKFKDKATLTADKSSSTANMQLSSLTSEDSAVYYCARSDRYDGYFDYWGQGTTLTVSS VL: DVLMTQTPLSLPVSLGDQASISCRSSQSIVHSNGDTYLEWYLQKPGQSPKLLVYKLSNRFSGVPDRFSGSGSGTDFTLKISRVEAEDLGVYYCFQGSHVPLTFGAGTKLEIK",
3.1,,"anti-C1s scFv 2.2L-2.2H (scFv, scFv in E. coli whole cell lysate; also called C1s-2 2L-2H) scFv: DIVMTQSPASLAVSLGQRATISCRASESVDSYGNSFMHWYQQKPGQPPKLLIYRASNLESGIPARFSGSGSRTDFTLTINPVEADDVTTYYCQQSNEDPWTFGGGTKLEIKGGGGSGGGGSGGGGSGGGGSEVKLVESGGGFVKPGGSLKLSCAASGFTFSTYGMSWVRQTPEKRLEWVASISAGGTTYYSDSVKGRFTISRDNARNILYLQMSSLRSEDTAMYYCARWLLLAYWGQGTLVTSSA",
,0.43,"anti-C1s IgG 2.3L-2.2H (antibody, V domains shown, Full-length IgG with human kappa and human IgG1 constant regions (pMAZ vectors, HEK293-F); also called C1s 2.3L-2.2H; 2.3L-2.2H (IgG)) VH: EVKLVESGGGFVKPGGSLKLSCAASGFTFSTYGMSWVRQTPEKRLEWVASISAGGTTYYSDSVKGRFTISRDNARNILYLQMSSLRSEDTAMYYCARWLLLAYWGQGTLVTSSA VL: not shown",Kd [4]: 0.43 nM; koff [4]: 0.00019 s⁻¹; kon [4]: 450000 M⁻¹ s⁻¹

# The next lines start with the binder.
Binder,ELISA Signal (OD450 on antigen-coated wells relative to BSA-coated wells) [1] [fold over BSA wells],EC50 (half-maximal binding) [2] [nM],also measured
"anti-C1s scFv 2.3L-2.2H (scFv, scFv in E. coli whole cell lysate; also called C1s-2 3L-2H) scFv: DIVMTQSPLTLTVTIGQPASISCKSSQSLLDSDGKTYLNWLLQRPGQSPKRLIYLVSKLDSGVPDRFTGSGSGTEFTLKTSRVEAEDLGVYYCWQGTHFPHFGGGTKLEIKGGGGSGGGGSGGGGSGGGGSEVKLVESGGGFVKPGGSLKLSCAASGFTFSTYGMSWVRQTPEKRLEWVASISAGGTTYYSDSVKGRFTISRDNARNILYLQMSSLRSEDTAMYYCARWLLLAYWGQGTLVTSSA",4.22,,
"anti-C1s IgG 2.3L-2.3H (antibody, V domains shown, Full-length IgG with human kappa and human IgG1 constant regions (pMAZ vectors, HEK293-F); also called C1s 2.3L-2.3H) VH: QVQLQQSGTVLARPGASVKMSCKASGYTFTSYWMHWVKQRPGQGLEWIGAIYPGNSDTSYNQKFKGKAKLTAVTSTSTAYMELSSLTNEDSAVYYCTRSDGYYYFDYWGQGTTLTVSS VL: not shown",,100,
"anti-BRIGHT IgG 1.2L-1.1H (antibody, V domains shown, Full-length IgG with human kappa and human IgG1 constant regions (pMAZ vectors, HEK293-F); also called BRIGHT 1.2L-1.1H) VH: EVKLVESGGDLVKPGGSLKLSCAASGFTFSSYGMSWVRQTPDKRLEWVATISSGGSYTYYPDSVKGRFTISRDNAKNTLYLQMSSLKSEDTAMYYCARHDYGNYVDYWGQGTTLTVSS VL: not shown",,,EC50 (half-maximal binding) [3]: 1000 nM
"anti-C1s IgG 2.2L-2.2H (antibody, V domains shown, Full-length IgG made in HEK 293F cells; also called C1s 2.2L with 2.2H) VH: EVKLVESGGGFVKPGGSLKLSCAASGFTFSTYGMSWVRQTPEKRLEWVASISAGGTTYYSDSVKGRFTISRDNARNILYLQMSSLRSEDTAMYYCARWLLLAYWGQGTLVTSSA VL: DIVMTQSPASLAVSLGQRATISCRASESVDSYGNSFMHWYQQKPGQPPKLLIYRASNLESGIPARFSGSGSRTDFTLTINPVEADDVTTYYCQQSNEDPWTFGGGTKLEIK",,,Kd [5]: ~500 nM
